# Patent US8591913B2, “Methods of decreasing adipose tissue” (Toru Miyazaki, priority 2009, dated 2013)
# Entries after “also recorded” stand apart in the source; their conditions may differ.
# Experiments:
# [1] = molecular target: T1, FAS (Mus musculus, UniProt P19096); assay: FAS enzyme activity in lysates of loaded 3T3-L1 cells (malonyl-CoA consumption); format: cell-based; details: C75 25 μM versus AIM 5 μg/mL, schedules (d) and (f)
# T1 construct: cell lysates were prepared, and the enzyme activity of FAS was measured; endogenous in cells; host or cells: 3T3-L1 cells (differentiating or differentiated)
# Procedure: Whether AIM affected an enzyme activity of FAS or not was examined.
# In addition, as a schedule (f) similar to the above-mentioned schedule (e), AIM was loaded for 4 days (day 8 to day 12) after the 3T3-L1 cells differentiated, subsequently the cells were collected on the 10th day (day 12) after the initiation of the differentiation induction, cell lysates were prepared, and the enzyme activity of FAS was measured. The enzyme activity of FAS was measured based on a consumption amount of malonyl-CoA.
# (§1) In addition, using a FAS inhibitor (C75) in place of AIM, the FAS inhibitor at a concentration of 25 μM was loaded according to the schedules (d) and (f), and as was the case with the above-mentioned AIM, the cells were collected on the 2nd day (day 4: schedule (d)) and 10th day (day 12: schedule (f)) after the initiation of the differentiation induction, and the enzyme activity of FAS was measured.
# Further, for comparison, the cells cultured without loading AIM in the above-mentioned schedule (a) were also collected at times of the 2nd day (day 4) and 10th day (day 12) after the initiation of the differentiation induction, and the enzyme activity of FAS was measured.
# FIG. 11B and FIG. 11C illustrate the results of measuring the FAS enzyme activity (Fatty acid synthase activity) (nmol NADPH/min/mg protein). FIG. 11B illustrates the results obtained on the 2nd day (day 4) after the initiation of the differentiation induction in the case of loading no AIM according to the schedule (a) (None), the case of loading AIM according to the schedule (d) (AIM (5 μg/mL)), and the case of loading the FAS inhibitor according to the schedule (d) (C75 (25 μM)). FIG. 11C illustrates the results obtained on the 10th day (day 12) after the initiation of the differentiation induction in the case of loading no AIM according to the schedule (a) (None), the case of loading AIM according to the schedule (f) (AIM (5 μg/mL)), and the case of loading the FAS inhibitor according to the schedule (f) (C75 (25 μM)).
# [2] = test system: mice; details: administration of C75 to mice, reported; cited from earlier work
# [3] = test system: 3T3-L1 preadipocytes; assay: Differentiation of 3T3-L1 preadipocytes into mature adipocytes, oil-red-o staining; format: cell-based, mouse; details: mouse AIM and human AIM compared, in vitro
# Procedure: In order to examine how AIM produced by the macrophages infiltrating the adipose tissues works on surrounding adipocytes, an experiment in which AIM was loaded during a culture process of differentiating 3T3-L1 preadipocytes into the mature adipocytes was performed.
# A recombinant mouse AIM protein and a recombinant human AIM protein were used as AIM. Those recombinant AIM proteins were prepared by culturing human-derived HEK293T cells transfected with a vector expressing mouse AIM or human AIM and isolating and purifying the protein from its culture supernatant. The same recombinant AIM proteins were also used as AIM in other examples shown below. AIM was loaded by adding AIM at a concentration of 5 μg/mL to the culture medium.
# Differentiation induction (Induction) of the 3T3-L1 cells was initiated by first culturing the 3T3-L1 cells for 4 days (day −2 to day 2) to proliferate the cells (Cell proliferation) and subsequently culturing the cells in a culture medium containing insulin, dexamethasone (DEX), and isobutylmethylxanthine (IBMX) for 2 days (day 2 to day 4). The differentiation induction was further continued by culturing the cells in a culture medium containing insulin for 2 days (day 4 to day 6).
# After the period of the differentiation induction (day 2 to day 6), the culture was continued in a culture medium not containing those differentiation-inducing factors. Then, the cells on the 10th day (day 12) after the initiation of the stimuli for differentiation induction were stained with oil-red-o, and the differentiation of the 3T3-L1 cells to mature adipocytes was observed.
# as §1
# FIG. 12A and FIG. 12B show the results of staining the cells with oil-red-o and analyzing the gene expression by RT-PCR on the 2nd day (day 4) after the initiation of the differentiation induction in the case of loading no AIM according to the schedule (a) (None), the case of loading AIM according to the schedule (d) (AIM (5 μg/mL)), and the case of loading the FAS inhibitor according to the schedule (d) (C75 (25 μM)), respectively.
# [4] = test system: mature adipocytes (differentiated 3T3-L1 cells); assay: Induction of lipolysis in mature 3T3-L1 adipocytes (lipid droplets, glycerol and free fatty acid efflux); format: cell-based, mouse; details: mouse AIM and human AIM compared, same range of concentrations in vitro
# Procedure: The effect of AIM on mature adipocytes was examined.
# Then, the cells on the 10th day (day 12) after the initiation of the stimuli for differentiation induction were stained with oil-red-o. The number of cells having lipid droplets was counted. Further, the diameter of lipid droplets was measured in the cells having lipid droplets. For comparison, the number of the cells was counted and the diameter of lipid droplets was measured for the cells cultured in the above-mentioned schedules (a) and (d).
# Further, the supernatant of the culture medium after the cells were cultured while loading AIM according to the schedule (e) was collected, and amounts of glycerol and free fatty acid (FFA) contained in the supernatant were measured by ELISA. For the comparison, the amounts of glycerol and free fatty acid in the culture supernatant obtained according to the schedule (a) were also measured.
# In order to avoid adsorption of free fatty acid to albumin contained in the culture medium, the culture medium supplemented with 10% FBS (fetal bovine serum) was exchanged to a serum-free culture medium on the 10th day (day 12) after the initiation of the differentiation induction, further the cells were cultured in the serum-free culture medium for 6 hours, and subsequently the amounts of glycerol and free fatty acid contained in the supernatant of the serum-free culture medium were measured.
# FIG. 7A and FIG. 7B illustrate the evaluation results of the number (per 10^4 μm^2) of cells having lipid droplets (Droplet (+) cells) and the relative diameter of lipid droplets (%) obtained according to the schedules (a), (d), and (e) (Exp. a, d, and e), respectively. The relative diameter of lipid droplets illustrated in FIG. 7B was calculated by defining the diameter of lipid droplets in the cells obtained according to the schedule (a) without AIM loading as 100%. FIG. 8A and FIG. 8B illustrate the concentration of glycerol (Glycerol Efflux, mM) and the concentration of free fatty acid (FFA Efflux, ×10 mM) in the culture medium obtained according to the schedules (a) and (e) (Exp. a and e), respectively.
# In addition, FIG. 13A and FIG. 13B illustrate the results of measuring the glycerol concentration (glycerol efflux, mM) and the free fatty acid concentration (FFA efflux, ×10 mM) in the culture medium on the 10th day (day 12) after the initiation of the differentiation induction in the case of loading no AIM according to the schedule (a) (None), the case of loading AIM according to the schedule (f) (AIM), and the case of loading the FAS inhibitor according to the schedule (f) (C75), respectively.
# [5] = test system: human mesenchymal stem cells (HMSCs); assay: Adipogenesis of human mesenchymal stem cells (HMSCs) with rhAIM; format: cell-based
# Procedure: In order to confirm that AIM also acts upon adipogenesis in human cells, the differentiation of human mesenchymal stem cells (HMSCs) (Lonza Walkersville Inc., USA) was stimulated in the presence or absence of recombinant human AIM (rhAIM).
# That is, HMSCs were cultured in a mesenchymal stem cell basal medium (MSCBM) (Lonza Walkersville Inc.) for 10 days until the cells became confluent. Subsequently, the adipogenesis of the cells was stimulated by culturing the cells in the presence or absence of rhAIM (10 μg/mL) together with human insulin, MCGS, dexamethasone, indomethacin, and IBMX for 3 days (adipogenesis induction) (reference: Janderrova et al., Obes. Res., 11: 65, 2003). After the stimulation, the cells were cultured in MSCBM in which human insulin and MCGS had been added for an additional 10 days. Then, the cells were collected and stained with oil-red-o.
# FIG. 36A, FIG. 36B, and FIG. 36C show the results of observing the cells before the stimulation of adipogenesis (Pre-stimulation), after the stimulation in the absence of rhAIM (rhAIM (−)), and after the stimulation in the presence of 10 μg/mL rhAIM (rhAIM (10 μg/mL)) under the phase contrast microscope, respectively.
# [6] = molecular target: T2, FAS (Homo sapiens, UniProt P49327); assay: Co-immunoprecipitation of HA-tagged AIM and FLAG-tagged FAS in HEK293T cells; format: binding; details: HEK293T cells co-expressing HA-tagged mouse AIM and FLAG-tagged FAS, anti-FLAG or anti-HA antibody
# T2 construct: expressed in transfected cells; host or cells: HEK293T
# Procedure: Thus, in order to confirm the fact, first, HEK293T cells which co-expressed both AIM (mouse AIM) fused with an HA-tag and FAS fused with a FLAG-tag were produced. Also, the HEK293T cells were collected after being cultured for a predetermined period of time, its cell lysate was prepared, and an immunoprecipitation was performed using an anti-FLAG antibody.
# In addition, a co-immunoprecipitation study was performed using HEK293T cells which express both FAS tagged with FLAG and mouse AIM tagged with HA, and an anti-FLAG antibody or an anti-HA antibody.
# T2 sequence (P49327 whole entry): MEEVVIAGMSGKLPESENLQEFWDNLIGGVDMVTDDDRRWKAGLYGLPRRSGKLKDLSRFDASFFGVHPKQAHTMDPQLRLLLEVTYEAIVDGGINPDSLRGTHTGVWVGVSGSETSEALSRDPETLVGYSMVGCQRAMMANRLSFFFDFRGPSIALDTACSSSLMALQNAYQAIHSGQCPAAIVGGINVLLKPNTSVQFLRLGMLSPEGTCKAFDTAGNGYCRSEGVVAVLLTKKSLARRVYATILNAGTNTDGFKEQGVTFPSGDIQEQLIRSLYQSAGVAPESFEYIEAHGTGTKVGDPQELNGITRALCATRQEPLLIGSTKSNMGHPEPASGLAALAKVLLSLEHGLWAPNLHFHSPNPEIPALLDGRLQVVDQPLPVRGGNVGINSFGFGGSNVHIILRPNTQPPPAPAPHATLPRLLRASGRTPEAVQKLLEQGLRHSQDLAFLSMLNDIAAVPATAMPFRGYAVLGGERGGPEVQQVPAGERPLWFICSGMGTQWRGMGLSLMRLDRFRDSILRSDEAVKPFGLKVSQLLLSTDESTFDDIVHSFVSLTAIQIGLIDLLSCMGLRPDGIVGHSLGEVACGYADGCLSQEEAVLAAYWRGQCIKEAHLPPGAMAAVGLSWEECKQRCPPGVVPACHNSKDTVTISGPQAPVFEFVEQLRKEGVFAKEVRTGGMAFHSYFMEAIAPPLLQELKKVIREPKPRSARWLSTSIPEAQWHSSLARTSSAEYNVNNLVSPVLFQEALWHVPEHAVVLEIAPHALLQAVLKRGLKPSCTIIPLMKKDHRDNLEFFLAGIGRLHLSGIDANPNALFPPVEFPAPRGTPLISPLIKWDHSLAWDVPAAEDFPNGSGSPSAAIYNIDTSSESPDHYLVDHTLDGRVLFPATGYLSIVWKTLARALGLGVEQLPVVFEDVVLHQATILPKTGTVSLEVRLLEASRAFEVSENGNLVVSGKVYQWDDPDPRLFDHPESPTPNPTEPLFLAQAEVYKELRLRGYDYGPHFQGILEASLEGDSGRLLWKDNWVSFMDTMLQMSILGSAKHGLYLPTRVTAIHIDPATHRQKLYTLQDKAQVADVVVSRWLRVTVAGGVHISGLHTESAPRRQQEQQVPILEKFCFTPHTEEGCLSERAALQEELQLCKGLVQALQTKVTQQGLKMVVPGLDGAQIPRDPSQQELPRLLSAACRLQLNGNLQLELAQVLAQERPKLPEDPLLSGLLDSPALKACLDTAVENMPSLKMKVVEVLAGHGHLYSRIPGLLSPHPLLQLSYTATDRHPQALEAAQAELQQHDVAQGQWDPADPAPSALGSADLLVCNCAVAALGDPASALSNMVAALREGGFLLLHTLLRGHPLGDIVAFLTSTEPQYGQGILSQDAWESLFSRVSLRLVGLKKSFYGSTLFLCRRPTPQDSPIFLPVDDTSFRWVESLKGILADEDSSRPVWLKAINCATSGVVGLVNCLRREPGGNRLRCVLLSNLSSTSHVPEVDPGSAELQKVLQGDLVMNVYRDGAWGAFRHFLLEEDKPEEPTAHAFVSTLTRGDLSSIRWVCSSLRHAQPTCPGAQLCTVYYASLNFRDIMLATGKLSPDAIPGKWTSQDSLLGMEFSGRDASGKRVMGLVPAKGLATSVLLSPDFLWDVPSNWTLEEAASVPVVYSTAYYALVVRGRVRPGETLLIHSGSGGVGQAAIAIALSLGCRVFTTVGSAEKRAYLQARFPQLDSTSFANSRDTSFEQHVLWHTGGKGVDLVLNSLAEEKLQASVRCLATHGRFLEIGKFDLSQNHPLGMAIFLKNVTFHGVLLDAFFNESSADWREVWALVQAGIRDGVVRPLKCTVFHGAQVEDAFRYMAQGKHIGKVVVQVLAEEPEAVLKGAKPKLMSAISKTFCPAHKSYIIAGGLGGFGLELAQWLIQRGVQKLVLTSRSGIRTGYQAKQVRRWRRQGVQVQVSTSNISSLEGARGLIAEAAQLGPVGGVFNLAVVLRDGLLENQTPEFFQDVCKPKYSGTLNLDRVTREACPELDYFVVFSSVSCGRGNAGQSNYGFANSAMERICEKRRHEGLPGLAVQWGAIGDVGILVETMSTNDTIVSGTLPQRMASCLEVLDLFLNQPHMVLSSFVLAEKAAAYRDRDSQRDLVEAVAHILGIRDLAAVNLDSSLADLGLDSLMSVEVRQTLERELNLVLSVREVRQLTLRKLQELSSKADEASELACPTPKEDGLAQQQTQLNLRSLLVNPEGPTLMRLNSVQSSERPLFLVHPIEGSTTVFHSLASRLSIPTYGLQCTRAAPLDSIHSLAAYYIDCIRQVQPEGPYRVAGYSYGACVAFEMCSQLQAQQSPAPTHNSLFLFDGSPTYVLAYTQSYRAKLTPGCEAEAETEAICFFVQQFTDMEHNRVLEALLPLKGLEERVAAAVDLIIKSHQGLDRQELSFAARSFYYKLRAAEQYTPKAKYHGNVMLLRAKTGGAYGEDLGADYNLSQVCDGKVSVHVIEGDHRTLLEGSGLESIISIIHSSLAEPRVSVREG
# T1 sequence (P19096 whole entry): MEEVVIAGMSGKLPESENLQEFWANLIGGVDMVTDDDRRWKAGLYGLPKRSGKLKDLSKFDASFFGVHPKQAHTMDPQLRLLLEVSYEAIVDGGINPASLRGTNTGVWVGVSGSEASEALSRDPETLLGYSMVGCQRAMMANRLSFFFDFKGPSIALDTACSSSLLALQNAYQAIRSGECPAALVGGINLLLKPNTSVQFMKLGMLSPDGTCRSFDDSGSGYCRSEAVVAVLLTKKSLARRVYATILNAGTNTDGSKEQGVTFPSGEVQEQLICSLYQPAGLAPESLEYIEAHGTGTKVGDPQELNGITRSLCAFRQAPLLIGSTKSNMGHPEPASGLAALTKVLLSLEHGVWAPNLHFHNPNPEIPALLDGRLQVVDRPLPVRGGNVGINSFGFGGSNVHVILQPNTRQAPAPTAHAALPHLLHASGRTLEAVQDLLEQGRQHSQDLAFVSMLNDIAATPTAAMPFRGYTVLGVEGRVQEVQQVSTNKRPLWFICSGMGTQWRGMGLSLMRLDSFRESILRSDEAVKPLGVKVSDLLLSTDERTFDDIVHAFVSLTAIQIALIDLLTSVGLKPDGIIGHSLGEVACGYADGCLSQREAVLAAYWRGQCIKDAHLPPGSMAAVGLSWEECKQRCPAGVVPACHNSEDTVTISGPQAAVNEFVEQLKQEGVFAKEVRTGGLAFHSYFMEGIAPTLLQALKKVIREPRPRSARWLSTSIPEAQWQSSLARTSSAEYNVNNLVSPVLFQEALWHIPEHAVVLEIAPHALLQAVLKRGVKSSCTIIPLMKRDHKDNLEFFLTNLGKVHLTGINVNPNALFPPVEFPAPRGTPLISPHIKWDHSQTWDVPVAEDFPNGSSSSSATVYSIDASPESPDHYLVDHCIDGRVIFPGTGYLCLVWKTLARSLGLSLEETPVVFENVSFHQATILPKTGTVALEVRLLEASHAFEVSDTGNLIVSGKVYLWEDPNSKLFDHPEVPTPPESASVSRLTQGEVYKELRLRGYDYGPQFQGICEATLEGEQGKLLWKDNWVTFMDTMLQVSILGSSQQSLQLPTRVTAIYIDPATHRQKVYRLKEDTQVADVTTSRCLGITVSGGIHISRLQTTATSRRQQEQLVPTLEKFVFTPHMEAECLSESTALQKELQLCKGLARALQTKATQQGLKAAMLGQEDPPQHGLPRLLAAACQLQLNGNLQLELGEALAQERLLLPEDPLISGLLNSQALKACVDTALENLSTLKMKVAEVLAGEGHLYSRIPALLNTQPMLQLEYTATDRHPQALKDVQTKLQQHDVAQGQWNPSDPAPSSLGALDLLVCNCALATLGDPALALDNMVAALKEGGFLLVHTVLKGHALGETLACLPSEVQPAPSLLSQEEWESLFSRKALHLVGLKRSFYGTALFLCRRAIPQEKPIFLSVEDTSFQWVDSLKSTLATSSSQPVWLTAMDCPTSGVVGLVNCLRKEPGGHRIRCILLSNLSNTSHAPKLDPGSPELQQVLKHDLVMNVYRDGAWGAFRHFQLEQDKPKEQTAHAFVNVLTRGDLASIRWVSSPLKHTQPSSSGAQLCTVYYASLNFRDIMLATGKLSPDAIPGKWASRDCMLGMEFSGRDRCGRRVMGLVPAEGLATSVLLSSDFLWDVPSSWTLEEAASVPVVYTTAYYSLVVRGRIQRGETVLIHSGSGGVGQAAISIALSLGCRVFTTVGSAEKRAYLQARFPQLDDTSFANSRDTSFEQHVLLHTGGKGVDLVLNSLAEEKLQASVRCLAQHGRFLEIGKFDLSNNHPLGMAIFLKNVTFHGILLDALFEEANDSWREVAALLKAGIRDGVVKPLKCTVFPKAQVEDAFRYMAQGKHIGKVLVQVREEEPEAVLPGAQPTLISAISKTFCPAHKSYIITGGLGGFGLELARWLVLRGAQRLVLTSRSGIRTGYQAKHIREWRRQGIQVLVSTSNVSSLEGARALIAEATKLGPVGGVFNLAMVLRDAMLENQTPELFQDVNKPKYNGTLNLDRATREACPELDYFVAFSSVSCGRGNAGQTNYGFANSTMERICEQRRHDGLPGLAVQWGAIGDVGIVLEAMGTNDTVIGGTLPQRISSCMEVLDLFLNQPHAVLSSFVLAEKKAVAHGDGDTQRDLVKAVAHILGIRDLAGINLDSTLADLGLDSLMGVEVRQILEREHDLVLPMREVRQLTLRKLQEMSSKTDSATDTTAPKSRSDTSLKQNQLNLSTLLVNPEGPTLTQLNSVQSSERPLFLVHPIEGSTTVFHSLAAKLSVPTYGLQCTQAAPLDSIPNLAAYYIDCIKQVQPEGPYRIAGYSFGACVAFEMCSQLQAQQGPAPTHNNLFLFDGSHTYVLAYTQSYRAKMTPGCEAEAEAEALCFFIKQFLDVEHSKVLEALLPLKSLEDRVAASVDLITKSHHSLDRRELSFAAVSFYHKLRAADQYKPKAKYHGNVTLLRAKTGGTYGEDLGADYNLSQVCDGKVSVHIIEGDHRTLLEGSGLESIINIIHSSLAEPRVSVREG
molecule,measurement,setting,value
C=C1C(=O)OC(CCCCCCCC)C1C(=O)O (stereo not shown) [C75],"levels of reduction of the FAS enzyme activity, C75 compared with AIM",[1],almost the same
same,amount of neuropeptide Y (NPY) produced in the hypothalamus,[2],reduces
same,appetite,[2],remarkable loss of appetite
same,body weight,[2],body weight loss; also recorded: totally accelerated
"human AIM: protein consisting of the amino acid sequence shown in SEQ ID NO: 1; recombinant, purified from HEK293T culture supernatant (protein, human, recombinant, purified from HEK293T culture supernatant) MALLFSLILAICTRPGFLASPSGVRLVGGLHRCEGRVEVEQKGQWGTVCDDGWDIKDVAVLCRELGCGAASGTPSGILYEPPAEKEQKVLIQSVSCTGTEDTLAQCEQEEVYDCSHDEDAGASCENPESSFSPVPEGVRLADGPGHCKGRVEVKHQNQWYTVCQTGWSLRAAKVVCRQLGCGRAVLTQKRCNKHAYGRKPIWLSQMSCSGREATLQDCPSGPWGKNTCNHDEDTWVECEDPFDLRLVGGDNLCSGRLEVLHKGVWGSVCDDNWGEKEDQVVCKQLGCGKSLSPSFRDRKCYGPGVGRIWLDNVRCSGEEQSLEQCQHRFWGFHDCTHQEDVAVICSG",differentiation of 3T3-L1 cells derived from mice / differentiation inhibitory function,[3],inhibited; also recorded: similarly exerted
same,lipolysis induction function in adipocytes derived from mice,[4],similarly exerted
same,differentiation of HMSCs,"[5]; rhAIM 10 μg/mL during 3 days adipogenesis induction, oil-red-o",dramatically inhibited
same,mRNA level of Glut-4,"[5]; rhAIM 10 μg/mL, RT-PCR, compared with absence of rhAIM",remarkably decreased
"HA-AIM: AIM (mouse AIM) fused with an HA-tag (protein, left off: small tags and cut ends, AIM (mouse AIM) fused with an HA-tag) ESPTKVQLVGGAHRCEGRVEVEHNGQWGTVCDDGWDRRDVAVVCRELNCGAVIQTPRGASYQPPASEQRVLIQGVDCNGTEDTLAQCELNYYVFDCSHEEDAGAQCENPDSDLLFIPEDVRLVDGPGHCQGRVEVLHQSQWSTVCKAGWNLQVSKVVCRQLGCGRALLTYGSCNKNTQGKGPIWMGKMSCSGQEANLRSCLLSRLENNCTHGEDTWMECEDPFELKLVGGDTPCSGRLEVLHKGSWGSVCDDNWGEKEDQVVCKQLGCGKSLHPSPKTRKIYGPGAGRIWLDDVNCSGKEQSLEFCRHRLWGYHDCTHKEDVEVICTDFDV",co-precipitation with FLAG-tagged FAS,[6],co-precipitation
same,co-precipitation with FLAG-tagged FAS,[6]; listed as mouse AIM tagged with HA,co-precipitated mutually
